Source: publication PMC12730240 (Biosensors, 2025)

Biological target: T1, Shiga toxin 2 (E. coli (Shiga toxin-producing, STEC))
T1 construct: source: similarly expressed and purified as previously described [29]; copies: + 5
Experiment: pull-down
Settings: both partners purified

B1: nanobody G1 (NG1), biotinylated (VHH)
VHH: QVQLVESGGGLVQPGESLRLSCVASASTFSTSLMGWVRQAPGKGLESVAEVRTTGGTFYAKSVAGRFTISRDNAKNTLYLQMNSLKAEDTGVYYCTAGAGPIATRYRGQGTQVTVSS
notes: also called B2; source: E. coli SHuffle T7, purified (Ni-NTA IMAC)
  binding result: binds
